From EP4703383A1 (Shenzhen Genuine Biomedical Technology Co., Ltd, dated 2026) come the findings set out here.

As a reminder, the Kd is the free concentration of one partner at which half of the binding sites on the other are occupied at equilibrium, for simple one-to-one binding. Read a low Kd as tighter binding. What is called koff is the rate constant with which the complex falls apart. Broadly, the kon is the second-order rate constant of association. Low readings indicate slower complex formation, high ones faster complex formation.

Positions count from the first letter of the chain named. Names may count otherwise.

The labels stand for the following.
T1: extracellular segment of human PRLR protein with avi-(his)6 tag (hPRLR-ECD-avi-his) (human, UniProt P16471 25-234)
T1 construct: The assays say only 'monomeric human PRLR extracellular domain / ECD'; also called human PRLR extracellular domain; monomeric PRLR ECD
T1 sequence: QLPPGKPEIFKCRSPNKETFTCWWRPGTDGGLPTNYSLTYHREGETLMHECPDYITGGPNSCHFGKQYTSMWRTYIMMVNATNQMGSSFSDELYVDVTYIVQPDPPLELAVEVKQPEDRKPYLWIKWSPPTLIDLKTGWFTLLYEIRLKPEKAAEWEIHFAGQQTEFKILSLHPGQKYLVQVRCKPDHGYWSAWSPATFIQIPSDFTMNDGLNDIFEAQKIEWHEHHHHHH

B1: P-PR-C08H (antibody, V domains shown)
VH: QVQLQQPGSELVRPGASVKLSCKASGFTFTTYWVHWVKQRPGQGLEWIGNISPGSGSTNYDEKFKSKASLTVDTFSNTAYMQLSSLTSEDSAVYYCIRHSGNYFNAMDYWGQGTTVTVSS
VL: DIVMTQAAPSVPVTPGESVSISCRSSKSLLHSNGNTYLYWFLQRPGQSPQLLIYRMSNLASGVPDRFSGSGSGTAFTLRISRVEAEDVGVYYCMQHLEYPLTFGAGTKLELK
notes: also called Antibody No. 6
B2: P-PR-C07H (antibody, V domains shown)
VH: EVQLQQSGAELVRPGTSVQISCKASGYTFTNNWLAWIKQRPGHGLEWIGDIYPGGVYTNYNEKFKGKATLTADTSSSTAYMQLSSLTSEDSAVYFCYYGDFWSAYWGQGTLVTVSA
VL: B1 VL
notes: also called Antibody No. 5
B3: P-PR-C12H (antibody, V domains shown)
VH: B1 VH with T30A, G56V, V116L
VL: B1 VL with P12L, L52V, L101F
notes: also called Antibody No. 7
B4: P-PR-C04H (antibody, V domains shown)
VH: B1 VH with S55G
VL: B1 VL with L101F, A105S, L111I
notes: also called Antibody No. 2
B5: P-PR-D01H (antibody, V domains shown)
VH: B1 VH with S55G, S84G, V116L
VL: B1 VL
notes: also called Antibody No. 8
B6: P-PR-H07W (antibody, V domains shown)
VH: B1 VH with T30A, G56V, V116L
VL: B1 VL with L101F, A105G, L111I
notes: also called Antibody No. 13
B7: P-PR-B09W (antibody, V domains shown)
VH: B1 VH with Y32F, S55G, G56T, T115S
VL: B1 VL
notes: also called Antibody No. 10
B8: P-PR-C06H (antibody, V domains shown)
VH: B1 VH with T115S
VL: B1 VL with P12F, R55Q, L59R, F67L, L101F, A105G, L111I
notes: also called Antibody No. 4
B9: P-PR-D06H (antibody, V domains shown)
VH: B1 VH with Y32F, G56T, D61N, S66N, V116L
VL: B1 VL with S20T, N35K, R55W, L101F, A105V
notes: also called Antibody No. 16; P-PR-D06W
B10: P-PR-C02H (antibody, V domains shown)
VH: B1 VH with K19R, T115S
VL: B1 VL with A8T, T14A, S32T, N35Y
notes: also called Antibody No. 1
B11: P-PR-C05H (antibody, V domains shown)
VH: B1 VH with Y32F, G56T, D61N, S66N, T115S
VL: B1 VL with V90I
notes: also called Antibody No. 3
B12: P-PR-H11W (antibody, V domains shown)
VH: B1 VH with Y32F, G56T, D61N, S66N, T115S
VL: B1 VL with L101F, A105G, L111I
notes: also called Antibody No. 14
B13: H-PR-B03 (antibody, V domains shown)
VH: QVQLKESGPGLVAPSQSLSITCTVSGFSLTGFGVNWFRQPPGRGLEWLGMIWGDGSTDYNSALKSRLSISKDNSKSQVFLKMNSLQTDDTARYYCARVLYYYGGNSFAYWGQGTLVTVSA
VL: DVLMTQTPLSLPVSLGDQASISCRSSQSIVHSNGNTYLEWYLQKPGQSPKLLIYKVSSRFSGVPDRFSGSGSGTDFTLKISRVEAEDLGVYYCFQGSHVPYTFGGGTKLEIK
notes: also called Antibody No. 17
B14: HP-PR02E11 (antibody, V domains shown)
VH: QVQLQQSGPGLVAPSQSLSITCTVSGFSLTSYGVNWVRQPPGKGLEWLGIIGAGGSTNYNSALMSRLSISKDNSKSQVFLKMNSLQTDDTAMYYCARSLYYYGSSSFAYWGQGTLVTVSA
VL: B13 VL with V2I, L3V, S58N, Y101W, I111L
notes: also called Antibody No. 19
B15: HP-PR01C02 (antibody, V domains shown)
VH: DVHLVESGPGLVKPSQSLSLTCTVTGYSITSDYAWNWIRQFPGNKLEWMGYISYSGSTGYSPSLKSRVSITRDTSKNQFFLQLNSVTTEDTATYFCARNNWAFDFWGQGTTLTVSS
VL: DIVLTQSPAIMSASPGEKVTMTCSASSSVNYMHWYQQKSGTSPKRWIYDTSKLASGVPARFSGSGSGTSYSLTISSMEAEDAATYYCQQWSSNPLTFGAGTKLELK
notes: also called Antibody No. 22
B16: P-PR-D04H (antibody, V domains shown)
VH: QVQLQQPGSELVRPGASVKLSCKASGYTFTSYWMHWVKQRPGQGLEWIGNIYPGSGSTNYDEKFKSKATLTVDTSSSTAYMQLSSLTSEDSAVYYCTRGNYRYYFDYWGQGTTLTVSS
VL: not shown
notes: also called Antibody No. 9
B17: HP-PR01D12 (antibody, V domains shown)
VH: EVMLVESGGGLVQPGGSRKLSCAASGFTFSSFGMNWVRQAPEKGLEWVAYISSGSSIIYYADTVKGRFTISRDNPKNTLFLQMTSLRSEDTAMYYCTRFYGYIPFDYWGQGTTLTVSS
VL: DIVMTQSPAIMSASPGEKVTMTCSASSSLIYMHWYQQKSSTSPKLWIYDTSKLASGVPGRFSGSGSGNSYSLTTSSMEAEDVATYYCFQGSGYPLTFGGGTKLEIK
notes: also called Antibody No. 20
B18: P-PR-H04W (antibody, V domains shown)
VH: B1 VH with T115S
VL: B1 VL with L101F, A105S, L111I
notes: also called Antibody No. 12
B19: P-PR-G02W (antibody, V domains shown)
VH: B1 VH with V116L
VL: B1 VL
notes: also called Antibody No. 11
B20: P-PR-C04W (antibody, V domains shown)
VH: B1 VH
VL: B1 VL
notes: also called Antibody No. 15
B21: H-PR-B06 (antibody, V domains shown)
VH: DVKLVESGGGLVKPGGSLKLACAASGFTFSSYTMSWVRQTPEKRLEWVATISSGGSYTYYPDSVKGRFTISRDNAKNTLYLQLSSLKSEDTAMYYCTRDRYYSTTPDWYFDVWGAGTTVTVSS
VL: DIVLTQSPATLSVTPGDSVSLSCRATQIIFNNLHWYQQKSHESPRLLITYTSQSISGIPSRFSGSGSGTDFTLTINSVETEDFGMYFCQQSNTWPRTFGGGTKLEIK
notes: also called Antibody No. 18

The first experiment has as its target T1, extracellular segment of human PRLR …. Nature of the experiment: ELISA, coated antigen 1 ug/mL, antibody 10 ug/mL.
Take B1: the “absorbance at 450nm” value worked out at 2.2.
For B2, the “absorbance at 450nm” value came out at 2.29.
In the case of B3, the “absorbance at 450nm” value is 2.24.
The same measure, in the same setting: as for B4, the figure is 2.15; as for B5, 2.02; as for B6, 2.45.
Still for that read-out and setting: as for B7, the figure is 2.32; as for B8, 2.1.
Regarding B9, the “absorbance at 450nm” value came out at 2.48.
Take B10: the “absorbance at 450nm” value turned out to be 2.14.
In the case of B11, the “absorbance at 450nm” value came out at 2.14.
For the molecule B12, the “absorbance at 450nm” value was 2.32.

The next experiment addresses T2, recombinant mesothelin protein with the same tag.
T2 construct: Control antigen of the species-specific ELISA; also called Control protein
Nature of the experiment: ELISA, coated antigen 1 ug/mL, antibody 10 ug/mL. A general note: ELISA stands for enzyme-linked immunosorbent assay.
For the molecule B13, the “absorbance at 450nm” value worked out at 0.067.
Turning to B14, the “absorbance at 450nm” value was found to be 0.111.
Regarding B15, the “absorbance at 450nm” value is 0.072.
Take B16: the “absorbance at 450nm” value was found to be 0.065.
Same read-out and setting: as for B17, the figure is 0.09.
With B1, the “absorbance at 450nm” value was 0.065.
B18: the “absorbance at 450nm” value stood at 0.064.
On to B19, for which the “absorbance at 450nm” value stood at 0.07.
Consider B20, for which the “absorbance at 450nm” value was determined as 0.095.
Same read-out and setting: the result for B2 reads 0.062; that for B3, 0.091.
For B4, the “absorbance at 450nm” value turned out to be 0.09.
Same read-out and setting: the result for B5 reads 0.068.
Take B6: the “absorbance at 450nm” value was 0.069.
Turning to B7, the “absorbance at 450nm” value was found to be 0.102.
Regarding B8, the “absorbance at 450nm” value stood at 0.084.
B9: the “absorbance at 450nm” value stood at 0.137.
B10: the “absorbance at 450nm” value was found to be 0.098.
Regarding B11, the “absorbance at 450nm” value was found to be 0.116.
Regarding B12, the “absorbance at 450nm” value stood at 0.054.
B21: the “absorbance at 450nm” value worked out at 0.054.

The next experiment concerns the target T1, extracellular segment of human PRLR …. Nature of the experiment: BLI (Octet), antibody on Protein A sensor, monomeric PRLR ECD in solution, 1:1 fit. For orientation: Biolayer interferometry detects binding as a change in optical thickness at a sensor tip.
For the molecule B1, the affinity, expressed as Kd, was 0.00177 nM; the dissociation rate constant (koff) was determined as 2.44e-07 s⁻¹; the kon was 138000 M⁻¹ s⁻¹.
B2 displayed an equilibrium dissociation constant (Kd) of 3.64 nM, a dissociation rate constant (koff) of 0.000386 s⁻¹ and an association rate constant (kon) of 106000 M⁻¹ s⁻¹.
Molecule B3 returned an equilibrium dissociation constant (Kd) of 2.7 nM, a koff of 0.00033 s⁻¹ and an on-rate (kon) of 122000 M⁻¹ s⁻¹.
For the molecule B5, the Kd stood at 0.00105 nM, the dissociation rate constant (koff) amounted to 2.44e-07 s⁻¹ and the on-rate (kon) worked out at 232000 M⁻¹ s⁻¹.
Turning to B7, the Kd came to 1.53 nM, the koff is 0.000287 s⁻¹ and the kon was 187000 M⁻¹ s⁻¹.
In turn, B8 gave a Kd of 2.71 nM, a koff of 0.000663 s⁻¹ and an on-rate constant (kon) of 244000 M⁻¹ s⁻¹.
B9 yielded a Kd of 3.38 nM, an off-rate (koff) of 0.000389 s⁻¹ and an association rate constant (kon) of 115000 M⁻¹ s⁻¹.
For B10 the same measures were 0.0016 nM, 2.44e-07 s⁻¹ and 153000 M⁻¹ s⁻¹.
Consider B11, for which the Kd is < 0.001 nM, the koff was found to be 1.3e-07 s⁻¹ and the kon was 209000 M⁻¹ s⁻¹.
